Data on 4 molecules can be found in patent US8846873B2, “Antibodies directed to GPNMB and uses thereof” (Celldex Therapeutics, Inc., priority 2004, dated 2014).

The target in assay [1] is T1, GPNMB (Homo sapiens, UniProt Q14956).
T1 construct: made in house; host or cells: HEK 293
T1 sequence (Q14956 23-492): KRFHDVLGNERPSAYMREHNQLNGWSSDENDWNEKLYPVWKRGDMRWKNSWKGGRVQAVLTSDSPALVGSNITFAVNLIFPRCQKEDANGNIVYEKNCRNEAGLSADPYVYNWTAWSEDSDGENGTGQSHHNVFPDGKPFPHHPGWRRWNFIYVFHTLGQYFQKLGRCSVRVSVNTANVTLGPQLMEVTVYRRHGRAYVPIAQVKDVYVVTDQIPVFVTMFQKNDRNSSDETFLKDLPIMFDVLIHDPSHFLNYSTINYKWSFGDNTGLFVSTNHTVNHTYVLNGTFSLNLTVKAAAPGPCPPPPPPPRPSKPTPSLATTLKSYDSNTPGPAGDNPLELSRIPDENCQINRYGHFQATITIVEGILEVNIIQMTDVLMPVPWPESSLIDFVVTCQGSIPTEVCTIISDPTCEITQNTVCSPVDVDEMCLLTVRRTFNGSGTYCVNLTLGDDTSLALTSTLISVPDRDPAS
The assay is described as follows: ELISA of hybridoma supernatants for binding to GPNMB. The protocol: After 14 days of culture, hybridoma supernatants were screened for GPNMB specific monoclonal antibodies. In the Primary screen, the ELISA plates (Fisher, Cat. No. 12-565-136) were coated with 50 μL/well of GPNMB (1 μg/mL) in Coating Buffer (0.1 M Carbonate Buffer, pH 9.6, NaHCO3 8.4 g/L), then incubated at 4° C. overnight. After incubation, the plates were washed with Washing Buffer (0.05% Tween 20 in PBS) three times. 200 μL/well Blocking Buffer (0.5% BSA, 0.1% Tween 20, 0.01% Thimerosal in 1×PBS) were added and the plates were incubated at room temperature for 1 h. After incubation, the plates were washed with Washing Buffer three times. Aliquots (50 μL/well) of hybridoma supernatants and positive and negative controls were added, and the plates were incubated at room temperature for 2 h. The positive control used throughout was serum from the relevant GPNMB immunized XenoMouse® mouse and the negative control was serum from the KLH-immunized relevant strain of XenoMouse® mouse. After incubation, the plates were washed three times with Washing Buffer. 100 μL/well of detection antibody goat anti-huIgGfc-HRP (Caltag, Cat. No. H10507, using concentration was 1:2000 dilution) was added and the plates were incubated at room temperature for 1 hour. After incubation, the plates were washed three times with Washing Buffer. 100 μl/well of TMB (BioFX Lab. Cat. No. TMSK-0100-01) was added, and the plates were allowed to develop for about 10 minutes (until negative control wells barely started to show color). 50 μl/well stop solution (TMB Stop Solution (BioFX Lab. Cat. No. STPR-0100-01) was then added and the plates were read on an ELISA plate reader at a wavelength of 450 nm.
Hybridoma supernatants were screened for binding to GPNMB by ELISA as described above in Example 2.

For assay [2], the target named is T1, GPNMB. Put plainly: BiaCore 2000 biosensor binding of hybridoma supernatant mAb to GPNMB. As to conditions: mAb captured on protein A, GPNMB 880 nM, 1:1 kinetic model. The method, then: Certain Hybridoma cell supernatants (29) were analyzed for binding to GPNMB by BiaCore® 2000 biosensor equipped with a research-grade CMS sensor chip. A 1:25 dilution of cell supernatant was passed over a protein A surface for 5 min followed by washing the surface for 10 mins. Subsequently, GPNMB was injected for 90 sec. over the surface at a concentration of 880 nM followed by dissociation. Double-referenced binding data were obtained by subtracting the signal from a control flow cell and subtracting the baseline drift of a buffer injected just prior to the antigen injection. GPNMB binding ddata for each mAb was normalized for the amount of mAb captured on each surface. Normalized, drift corrected responses were also measured. The sensorgrams were fit to a simple 1:1 kinetic model.
In general terms: Surface plasmon resonance follows binding to a sensor surface in real time, without labels.

Assay [3] concerns TK10 cells. The assay is described as follows: FACS anti-GPNMB staining. The format is binding, human. As to conditions: primary antibody 1 μg/mL.
In assay [4] the target is T1, GPNMB. Put plainly: Binning of antibodies (Luminex competitive binding). As to conditions: three bins of six anti-GPNMB antibodies. The method, then:
Certain antibodies, described herein were binned in accordance with the protocol described in U.S. Patent Application Publication No. 20030157730. MxhIgG conjugated beads are prepared for coupling to primary antibody. The volume of supernatant needed is calculated using the following formula: (n+10)×50 μL (where n=total number of samples on plate). Where the concentration is known, 0.5 μg/mL is used. Bead stock is gently vortexed, then diluted in supernatant to a concentration of 2500 of each bead per well or 0.5×10^5/mL and incubated on a shaker in the dark at RT overnight, or 2 hours if at a known concentration of […]. Following aspiration, 50 μL of each bead is added to each well of filter plate, then washed once by adding 100 μL/well wash buffer and aspirating. Antigen and controls are added to filter plate 50 μL/well then covered and allowed to incubate in the dark for 1 hour on shaker. Following a wash step, a secondary unknown antibody is added at 50 μL/well using the same dilution (or concentration if known) as is used for the primary antibody. The plates are then incubated in the dark for 2 hours at RT on shaker followed by a wash step. Next, 50 μL/well biotinylated mxhIgG diluted 1:500 is added and allowed to incubate in the dark for 1 hour on shaker at RT. […]

Assay [5] concerns normal and tumor human tissue microarrays. Put plainly: GPNMB immunohistochemistry (IHC) analysis. The protocol:
Anti-GPNMB monoclonal antibodies were evaluated for reactivity with frozen and fixed tissue specimens. Tissue sections (5 μm) were cut from formalin fixed and paraffin embedded tissue samples and were rehydrated through incubations in xylene and a graded ethanol series terminating in PBS. Endogenous peroxidase activity was quenched in a 3% solution of hydrogen peroxide in methanol.
Tissue sections were blocked in blocking buffer (5% BSA (Sigma), 1% goat serum (Jackson Immunolabs, West Grove, Pa.) in PBS) for 1 hour. Primary and secondary antibodies were precomplexed in 5% BSA and 1% goat serum in PBS for 1 hour at 37° C. at a molar ratio of approximately 10:1 of anti-GPNMB or control IgG to secondary biotinylated goat anti-human IgG (Jackson Immunolabs). Complexes were blocked with a 1:2000 dilution of human serum and incubated again for 1 hour at 37° C. Tissue sections were incubated with anti-GPNMB antibody or isotype control antibody complexes diluted in blocking buffer for 1 hour. Sections were washed in 3 changes of PBS for 5 to 10 minutes each and incubated with a 1:200 dilution of streptavidin conjugated horseradish peroxidase (Jackson Immunolabs) in blocking buffer for 30 minutes and then washed as before. Antibody was detected using DAB reagent (Vector labs). […]

B1: Mab1.2.2: human anti-GPNMB antibody; VH SEQ ID NO: 38, VL SEQ ID NO: 47 (antibody, listed as Homo sapiens, V domains shown)
VH: ITLKESGPTLVKPTQTLTLTCTFSGFSLSAGGVGVGWIRQPPGKALEWLALIYWNDDKRYSPSLRSRLTITKDTSKNQVVLTITNMDPVDTATYYCAHSHYDYDWGSYFDYWGQGTLVTVSSA
VL: DIVMTQTPLSLPVTPGEPASISCRSSQSLLDSDDGNTYLDWYLQKPGQSPQLLIYTLSYRASGVPDRFSGSGSGTDFTLNISRVEAEDVGVYYCMQRIEFPITFGQGTRLEIKR
On to B1, for which the “Avg OD” value is on record as 0.049 in assay [1] (12.3 ng/mL); 0.094 in assay [1] (37 ng/mL); 0.199 in assay [1] (111 ng/mL); 0.356 in assay [1] (333 ng/mL); 0.499 in assay [1] (1 μg/mL); 0.763 in assay [1] (3 μg/mL). Further, the Kd – broadly, the free concentration of one partner at which half of the binding sites on the other are occupied at equilibrium, for simple one-to-one binding – in assay [2] was determined as 96 nM. In assay [2], the ka came to 9257 M⁻¹ s⁻¹. The molecule also gave a kd in assay [2] of 0.00089 s⁻¹. In addition, the “Geo Mean Ratio of anti-GPNMB Staining (relative to pK16)” value in assay [3] is on record as 0.98.

B2: Mab1.10.2: human anti-GPNMB antibody; VH SEQ ID NO: 2, VL SEQ ID NO: 11 (antibody, listed as Homo sapiens, V domains shown)
VH: QVQLQESGPGLVKPSETLSLTCTVSGDSISNYYWSWIRQPPGKGLEWIGYFYYSGSTNYNPSLKSRVTISVDTSKNQFSLKLSSVTAADTAVYYCARDRGWADYWGQGTLVTVSSA
VL: EIVLTQSPGTLSLSPGERATLSCRTSQSISSSYLAWYQQKPGQVPRLLIYGASSRATGIPDRFSGSGSGTDFTLTISRLEPEDFAVYYCQQYGSSITFGQGTRLEIKR
On to B2, for which, in assay [2], binding was characterised by a dissociation constant (Kd) of 118 nM, the ka was determined as 3955 M⁻¹ s⁻¹ and the kd stood at 0.000466 s⁻¹.

B3: Mab1.7.1: human anti-GPNMB antibody; VH SEQ ID NO: 56, VL SEQ ID NO: 65 (antibody, listed as Homo sapiens, V domains shown)
VH: QVQLQESGPGLVKPSQTLSLTCTVSGGSISSANYYWTWIRQHPGKGLEWIGYIYYSGSTYCNPSLKSRVIISVDTSKNQFSLKLSSVTAADTAVYYCARGYNWNYFDYWGQGTLVTVSSA
VL: DIVMTQSPATLSVSPGERATLSCRASQSVSSNLAWYQERPGQAPRLLIYGASTRATGIPARFSGSGSGTEFTLTISSLQSEDFAVYYCQQYNKWPPWTFGQGTKVEIER
In the case of B3, in assay [2], the dissociation constant (Kd) was 122 nM, the ka was found to be 11842 M⁻¹ s⁻¹ and the kd came out at 0.00144 s⁻¹.

B4: Mab2.22.1: human anti-GPNMB antibody; VH SEQ ID NO: 164, VL SEQ ID NO: 173 (antibody, listed as Homo sapiens, V domains shown)
VH: QVQLEQSGPGLVKPSQNLSLTCTVSGGSISSGGYFWSWIRQHPGKGLEWIGYIYYSGNTYYNPSLKSRVTISVDTSKNQFSLKLSSVTAADTAVYYCARDYYYDTSGFSYRYDWYYGMDVWGQGTTVTVSSA
VL: DIQLTQSPSSLSASVGDRVTITCRASQGIRNDLGWYQQKPGKAPKRLIYAASSLQNGVPSRFSGSGSGTEFTLTISSLQPEDFATYYCLQHNTYPAFGQGTKVEIKR
B4: the Bin result in assay [4] was “Bin 1”. Also, the “staining of tissue specimens” value in assay [5] is recorded as “Positive staining”. Besides, the “Geo Mean Ratio of anti-GPNMB Staining (relative to pK16)” value in assay [3] was found to be 1.10.
